{"source": "paper PMC10870823", "about": "(mBio, 2023)", "binders": {"B1": {"name": "FG-10A3 (Family G clone 10A3) human anti-SARS-CoV-2 Spike RBD monoclonal antibody (antibody, V domains shown)", "VH": "QVQLVESGGGVVQPGRSLRLSCAASGFTFSSYGMNWVRQAPGKGLEWVAIIWYDGNNTYYVDSVKGRFTISRDNSKNTLYLQMNSLRAEDTAVYYCARKDGSKTYYGYYFDYWGQGTLVTVSS", "VL": "DIQMTQSPSSLSASVGDRVTITCRASQSIHSFLNWYQQKPGKPPNLLIYAASSLQSGLPSRFSGSGSGTDFTLTISSLQPEDFATYYCQQSYITPPTFGHGTKVEIK", "notes": "also called Family G (FG)-10A3"}}, "target": "T1, SARS-CoV-2 (Wuhan / WA-1) Spike RBD-mouse IgG2a Fc fusion protein (SARS-CoV-2, UniProt P0DTC2)", "T1 construct": "source: recombinant, purified", "assay": "BLI", "conditions": "both partners purified"}
{"binder": "B1", "values": [{"measurement": "Kd", "result": 0.125, "unit": "nM"}]}
